Square brackets hold non-standard residues; d marks the D form. Ends that are not written are not given here. Arg(Me2a) = CN(C)C(=N)NCCC[C@H](N)C(=O)O; Arg(Me2s) = CN=C(NC)NCCC[C@H](N)C(=O)O; Arg(Me) = CNC(=N)NCCC[C@H](N)C(=O)O
B1: PGM(SmB165SD) (peptide)
peptide: YPPG[Arg(Me2s)]GGPPP
modifications: also: fluorescein label, position not given here
notes: PGM motif stretch of the splicing protein SmB; also called sDMA PGM motif peptide from SmB; source: synthetic peptide (Tufts University Core Services)
B2: PIWIL1_R4me2a peptide (TGRme2aARARA) (peptide)
peptide: TG[Arg(Me2a)]ARARA
notes: N-terminal GAR motif stretch of PIWIL1, R4 asymmetrically dimethylated; also called PIWIL1_R4me2a peptide of the ITC measurement; source: synthetic peptide (Tufts University Core Services)
B3: H3R2me1 (peptide)
peptide: A[Arg(Me)]TKQTARKSY
modifications: also: fluorescein label, position not given here
notes: histone H3 N-terminal tail; C-terminal tyrosine printed at the end of the peptide; also called histone H3R2 peptide, monomethylated; source: synthetic peptide (Tufts University Core Services)
B4: PGM(SmB221SD) (peptide)
peptide: PPGM[Arg(Me2s)]GPPP
modifications: also: fluorescein label, position not given here
notes: as for B1
B5: H3R2me2s (peptide)
peptide: A[Arg(Me2s)]TKQTARKSY
modifications: also: fluorescein label, position not given here
notes: histone H3 N-terminal tail; C-terminal tyrosine printed at the end of the peptide; also called histone H3R2 peptide, symmetrically dimethylated; source: synthetic peptide (Tufts University Core Services)
B6: PIWIL1-R4un (peptide)
peptide: TGRARARARGRARGQE
modifications: also: fluorescein label, position not given here
notes: N-terminal GAR motif stretch of PIWIL1, unmethylated; also called unmethylated PIWIL1 peptide; source: synthetic peptide (Tufts University Core Services)
B7: PIWIL1-R4me2a (peptide)
peptide: TG[Arg(Me2a)]ARARARGRARGQE
modifications: also: fluorescein label, position not given here
notes: N-terminal GAR motif stretch of PIWIL1, R4 asymmetrically dimethylated; also called asymmetrical dimethylated PIWIL1 peptide; source: synthetic peptide (Tufts University Core Services)
B8: PGM(SmB214SD) (peptide)
peptide: PPGM[Arg(Me2s)]PPPPG
modifications: also: fluorescein label, position not given here
notes: as for B1
B9: PIWIL1-R4me2s (peptide)
peptide: TG[Arg(Me2s)]ARARARGRARGQE
modifications: also: fluorescein label, position not given here
notes: N-terminal GAR motif stretch of PIWIL1, R4 symmetrically dimethylated; also called symmetrical dimethylated peptide of the PIWIL1 protein; source: synthetic peptide (Tufts University Core Services)
B10: SmD3RSDMA (peptide)
peptide: GGRG[Arg(Me2s)]GRG
modifications: also: fluorescein label, position not given here
notes: GAR motif peptide named after SmD3; also called SmD3 peptide; source: synthetic peptide (Tufts University Core Services)
B11: H3R2me2a (peptide)
peptide: A[Arg(Me2a)]TKQTARKSY
modifications: also: fluorescein label, position not given here
notes: histone H3 N-terminal tail; C-terminal tyrosine printed at the end of the peptide; also called histone H3R2 peptide, asymmetrically dimethylated; source: synthetic peptide (Tufts University Core Services)
B12: PIWIL1-R4me1 (peptide)
peptide: TG[Arg(Me)]ARARARGRARGQE
modifications: also: fluorescein label, position not given here
notes: N-terminal GAR motif stretch of PIWIL1, R4 monomethylated; also called monomethylated PIWIL1 peptide; source: synthetic peptide (Tufts University Core Services)

How the values were obtained:
Conditions in all cases: both partners purified
[1] = target: T1, SMN (aa 80–170) (human, UniProt Q16637 80-170); assay: fluorescence polarisation; fluorescein-labeled peptides; 20 mM Tris pH 7.5, 50 mM NaCl, 1 mM DTT, 0.01% Triton X-100; 25°C; one-site binding model; Kd the average of three independent measurements
T1 construct: Survival motor neuron protein (SMN), human, residues 80-170, covers the Tudor domain; cloned into the pET28-MHL vector; also called Survival motor neuron protein; source: E. coli BL21 (DE3), purified (Ni-NTA, size exclusion chromatography)

[2] = target: T2, SND1 (aa 650–910) (UniProt Q7KZF4 650-910); assay: as above
T2 construct: SND1, residues 650-910, extended Tudor domain; also called extended Tudor domain of SND1
T2 sequence (looked up): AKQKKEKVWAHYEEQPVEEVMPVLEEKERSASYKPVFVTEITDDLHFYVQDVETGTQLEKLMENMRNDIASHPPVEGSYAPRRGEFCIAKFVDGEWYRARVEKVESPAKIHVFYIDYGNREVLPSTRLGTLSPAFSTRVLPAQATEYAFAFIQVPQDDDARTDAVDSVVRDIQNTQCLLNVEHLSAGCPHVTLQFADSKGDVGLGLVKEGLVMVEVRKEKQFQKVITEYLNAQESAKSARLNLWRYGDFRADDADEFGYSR

[3] = target: T3, TDRD3 (aa 520–633) (human, UniProt Q9H7E2 520-633); assay: ITC; 20 mM Tris pH 8.0, 200 mM NaCl; 25°C; one-site binding model
T3 construct: cloned into the pET28-MHL vector; also called Tudor domain-containing protein 3; source: E. coli BL21 (DE3), purified (Ni-NTA, size exclusion chromatography)

[4] = target: T4, SPF30 (aa 65–150) (human, UniProt O75940 65-150); assay: fluorescence polarisation; fluorescein-labeled peptides; 20 mM Tris pH 7.5, 50 mM NaCl, 1 mM DTT, 0.01% Triton X-100; 25°C; one-site binding model; Kd the average of three independent measurements
T4 construct: Splicing factor 30 kDa (SPF30, SMNDC1), human, residues 65-150, covers the Tudor domain; cloned into the pET28-MHL vector; also called Splicing factor 30 kDa; SMNDC1; source: E. coli BL21 (DE3), purified (Ni-NTA, size exclusion chromatography)
T4 sequence (looked up): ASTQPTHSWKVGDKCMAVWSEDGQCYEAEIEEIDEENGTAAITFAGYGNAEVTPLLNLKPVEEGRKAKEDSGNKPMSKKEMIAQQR

[5] = target: T3, TDRD3 (aa 520–633); assay: as above
[6] = target: T5, SMN construct covering only the Tudor domain (residues 82–147) (human, UniProt Q16637 82-147); assay: as above
T5 construct: Survival motor neuron protein (SMN), human, residues 82-147, only the Tudor domain; also called SMN Tudor domain; source: E. coli BL21 (DE3), purified (Ni-NTA, size exclusion chromatography)
T5 sequence (Q16637 82-147): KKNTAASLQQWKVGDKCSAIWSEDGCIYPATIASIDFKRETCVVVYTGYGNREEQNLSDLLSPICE

T1 sequence (Q16637 80-170): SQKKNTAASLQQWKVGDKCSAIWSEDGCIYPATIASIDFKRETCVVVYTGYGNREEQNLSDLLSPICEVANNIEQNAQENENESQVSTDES

Row | Binder | Kd [1] [µM] | Kd [2] [µM] | binding result [3] | Kd [4] [µM] | Kd [5] [µM] | Kd [6] [µM]
1 | B1 | > 300 | > 500 |  |  |  | 
2 | B2 |  |  | binds |  |  | 
3 | B3 | > 300 | > 300 |  |  |  | 
4 | B4 | > 500 |  |  |  |  | 
5 | B5 | > 150 |  |  |  |  | 
6 | B6 | > 300 |  |  | > 500 | > 500 | 
7 | B7 | 97 ± 3 |  |  | > 400 | > 150 | 
8 | B8 | > 400 |  |  |  |  | 
9 | B9 | 34 ± 2 |  |  | > 200 | > 300 | 46
10 | B10 | 94 ± 4 | 56 ± 8 |  |  | > 400 | 
11 | B11 | > 200 | > 300 |  |  |  | 
12 | B12 | > 150 |  |  | > 500 | > 500 | 

From paper PMC3281842, “Crystal Structure of TDRD3 and Methyl-Arginine Binding Characterization of TDRD3, SMN and SPF30” (PLoS ONE, 2012)
